Drawing on paper PMC4180972, this text covers fold reduction in TIN2 association against wild-type TPP1 for one substance.

The target in this assay is Flag-TIN2 (human) (UniProt Q9BSI4). The experiment in a line: co-IP.
Sequence of UniProt Q9BSI4 (Q9BSI4 whole entry): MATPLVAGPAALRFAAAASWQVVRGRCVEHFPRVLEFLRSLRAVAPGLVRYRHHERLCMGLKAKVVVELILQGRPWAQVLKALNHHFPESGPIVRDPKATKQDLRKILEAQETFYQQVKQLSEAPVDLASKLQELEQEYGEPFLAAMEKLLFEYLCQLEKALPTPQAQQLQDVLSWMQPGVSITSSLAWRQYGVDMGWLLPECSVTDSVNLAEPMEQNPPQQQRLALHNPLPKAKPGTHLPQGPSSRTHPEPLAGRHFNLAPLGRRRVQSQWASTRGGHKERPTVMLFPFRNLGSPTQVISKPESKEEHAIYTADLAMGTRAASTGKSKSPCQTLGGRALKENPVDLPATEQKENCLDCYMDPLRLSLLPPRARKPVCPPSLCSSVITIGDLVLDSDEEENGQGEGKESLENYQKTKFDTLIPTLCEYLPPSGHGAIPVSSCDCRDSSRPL

The substance “Flag-tagged TPP1-P491T (from UniProt Q96AP0-3 1-458) (natural protein)” had a fold reduction in TIN2 association against wild-type TPP1 of 2 fold.
